Assay results published in paper PMC6796926, “Pioneering function of Isl1 in the epigenetic control of cardiomyocyte cell fate”.

T1: Isl1 homeodomain (Isl1-HD) (UniProt P61372 181-240)
T1 sequence: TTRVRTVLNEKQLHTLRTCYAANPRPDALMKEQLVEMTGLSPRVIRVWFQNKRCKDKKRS

B1: free Ttn DNA (dsDNA)
DNA 1: CGGTGTCTGCTATCACTCAGTTTCATCCCTTTCTTCCCAAATGGCCAGTTTCATGTTGTGTATCTTGACAGTGACTCCCAACCAGAGACTCCTGTTAAGGGAACTTGTCAGTCATAATAGACAATAAGTGAACTTCTTGTTCGGGGTGCTCAATAATTTGCT
DNA 2: AGCAAATTATTGAGCACCCCGAACAAGAAGTTCACTTATTGTCTATTATGACTGACAAGTTCCCTTAACAGGAGTCTCTGGTTGGGAGTCACTGTCAAGATACACAACATGAAACTGGCCATTTGGGAAGAAAGGGATGAAACTGAGTGATAGCAGACACCG
B2: nonspecific competitor (NS) (dsDNA)
DNA 1: CAAGCAAAACAAACCA
DNA 2: TGGTTTGTTTTGCTTG
B3: specific competitor (Insulin enhancer) (dsDNA)
DNA 1: CCCTTGTTAAGACTCTAATTACCCTAG
DNA 2: CTAGGGTAATTAGAGTCTTAACAAGGG

Key:
[1] = biological target: T1, Isl1 homeodomain (Isl1-HD); assay: EMSA; 0-1 uM Isl1; 40 mM KCl, 15 mM HEPES pH 8.0, 1 mM EDTA, 0.5 mM DTT, 2 mM MgCl2, 5% glycerol, 10 ng/ul poly dI/dC, 0.1 mg/ml BSA, 30 min, RT; 4% PAGE in 0.5x TBE; settings: protein: recombinant; tags: 6xHis; label: biotin (PCR primers); blunt
[2] = biological target: T1, Isl1 homeodomain (Isl1-HD); assay: competition; 80x excess vs free and nucleosomal Ttn DNA, 0.5 uM Isl1; 40 mM KCl, 15 mM HEPES pH 8.0, 1 mM EDTA, 0.5 mM DTT, 2 mM MgCl2, 5% glycerol, 10 ng/ul poly dI/dC, 0.1 mg/ml BSA, 30 min, RT; 4% PAGE in 0.5x TBE; settings: protein: recombinant; tags: 6xHis; blunt

Binder	binding result [1]	binding result [2]
B1	binds	–
B2	–	no binding
B3	–	binds
